To fix the notation:
B1: recombinant murine (rm) CIRP (ligand, mouse, UniProt P60824 1-172, looked up)
chain: MASDEGKLFVGGLSFDTNEQALEQVFSKYGQISEVVVVKDRETQRSRGFGFVTFENIDDAKDAMMAMNGKSVDGRQIRVDQAGKSSDNRSRGYRGGSAGGRGFFRGGRSRGRGFSRGGGDRGYGGGRFESRSGGYGGSRDYYASRSQGGSYGYRSSGGSYRDSYDSYATHNE
notes: For SPR it was bought (Cat # CSB-EP613483He0); For the cell assays it was made in the lab and, in the uptake experiments, labelled with FITC; also called eCIRP

For assay [1], the target named is T1, recombinant murine MFG-E8 (rmMFG-E8) (mouse, UniProt P21956 23-463).
T1 construct: For SPR it was bought from R&D Systems (Cat #2767-MF-050); For the cell assays it was made in the lab; also called milk fat globule-epidermal growth factor-factor VIII; AlexaFluor568-rmMFG-E8
T1 sequence: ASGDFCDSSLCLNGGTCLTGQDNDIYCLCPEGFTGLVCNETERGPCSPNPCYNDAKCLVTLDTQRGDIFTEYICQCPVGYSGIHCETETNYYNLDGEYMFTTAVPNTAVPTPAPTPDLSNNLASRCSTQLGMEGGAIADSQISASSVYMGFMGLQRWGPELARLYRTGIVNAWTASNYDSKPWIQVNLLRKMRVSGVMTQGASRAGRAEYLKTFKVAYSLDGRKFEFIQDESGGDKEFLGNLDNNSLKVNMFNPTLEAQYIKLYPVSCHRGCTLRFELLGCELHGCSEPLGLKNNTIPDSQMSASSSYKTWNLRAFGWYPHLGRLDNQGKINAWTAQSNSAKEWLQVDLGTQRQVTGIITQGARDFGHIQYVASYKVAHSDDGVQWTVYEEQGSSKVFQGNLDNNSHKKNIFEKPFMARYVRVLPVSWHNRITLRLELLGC
The assay can be described thus: SPR (Biacore/OpenSPR); rmCIRP immobilised, rmMFG-E8 as analyte at 15.7-250 nM; 1:1 fit; mouse proteins. The procedure: (§1) To examine the direct interaction between rmCIRP and rmMFG-E8, surface plasmon resonance (SPR), OpenSPR (Nicoya), was performed between rmCIRP and rmMFG-E8. rmCIRP was immobilized on carboxyl sensor and rmMFG-E8 was injected as an analyte in concentrations of 15.7 nM to 250 nM. Binding reactions were performed in DPBS, with Calcium and Magnesium, 0.05% P20, 1% BSA, and pH 7.4. In parallel experiments, binding of MOP3 to rmCIRP (analyte) was performed with concentrations of 0.5 μm to 2 μM, and binding of MOP3 to αᵥβ₃-integrin (analyte) was performed in concentrations of 31.25 nM to 125 nM. All binding reactions were performed in PBS 0.05% P20, pH7.4. Briefly, the carboxyl sensor was first cleaned by injection 10 mM HCL 150 μl, followed by injection of 150 μl of the mixture of 1 aliquot of N-ethyl-N′-[3-[…]]-carbodiimide (EDC) and 1 aliquot of N-hydroxysuccinimide (NHS) to activate the sensor surface. An aliquot of 200 μl of 50 μg/ml of the ligand diluted in 10 mM sodium acetate (pH 5.5) was injected at 20 μl/minutes into flow cell-channel-2 of the sensor for immobilization. Next, 150 μl of 1 M […] (pH 8.5) was injected to deactivate the remaining active sites on channel 1&2. […] To evaluate binding, the analyte was injected into flow cell-1 and flow cell-2 and increasing concentrations and real-time interaction data were analyzed by TraceDrawer (Nicoya). […]
A general note: In SPR one partner is held on a chip, and binding of the other changes the refractive index at the surface.

Assay [2] deals with T2, recombinant human MFG-E8 (rhMFG-E8) (human, UniProt Q08431 24-387, limits assumed).
T2 sequence (looked up): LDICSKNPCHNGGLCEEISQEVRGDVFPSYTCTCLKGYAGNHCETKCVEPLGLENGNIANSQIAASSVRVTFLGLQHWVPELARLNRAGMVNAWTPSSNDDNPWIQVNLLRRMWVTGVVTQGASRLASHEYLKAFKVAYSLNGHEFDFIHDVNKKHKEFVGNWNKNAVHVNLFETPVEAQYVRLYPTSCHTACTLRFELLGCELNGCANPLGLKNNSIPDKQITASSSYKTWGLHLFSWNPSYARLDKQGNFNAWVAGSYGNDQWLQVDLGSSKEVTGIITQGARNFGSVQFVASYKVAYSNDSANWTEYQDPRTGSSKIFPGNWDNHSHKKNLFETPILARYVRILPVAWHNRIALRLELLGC
In words: SPR (Biacore); human proteins.

The target in assay [3] is T3, αvβ3-integrin (recombinant, R&D Systems Cat #7889-AV-050).
T3 construct: Used as the analyte in SPR over immobilised MOP3; also called αvβ3-integrin receptor; auß3-integrin
The assay can be described thus: SPR (Biacore/OpenSPR); αvβ3-integrin as analyte at 31.25-125 nM; 1:1 fit. The procedure: as §1

In assay [4] the target is B1. The assay can be described thus: SPR (Biacore/OpenSPR); rmCIRP as analyte at 0.5-2 µM; 1:1 fit; Example 2, Biacore. The procedure:
as §1

Assay [5] deals with B1. In words: SPR (Example 1); Example 1; paragraph 73 gives a separate value of 3.1×10^-7 M.

Drawing on US20240197828A1 (FEINSTEIN INSTITUTES FOR MEDICAL RESEARCH, published 2024), this text covers Kd for three molecules.

T3 sequence (P43406 31-988, chain 1 of 2): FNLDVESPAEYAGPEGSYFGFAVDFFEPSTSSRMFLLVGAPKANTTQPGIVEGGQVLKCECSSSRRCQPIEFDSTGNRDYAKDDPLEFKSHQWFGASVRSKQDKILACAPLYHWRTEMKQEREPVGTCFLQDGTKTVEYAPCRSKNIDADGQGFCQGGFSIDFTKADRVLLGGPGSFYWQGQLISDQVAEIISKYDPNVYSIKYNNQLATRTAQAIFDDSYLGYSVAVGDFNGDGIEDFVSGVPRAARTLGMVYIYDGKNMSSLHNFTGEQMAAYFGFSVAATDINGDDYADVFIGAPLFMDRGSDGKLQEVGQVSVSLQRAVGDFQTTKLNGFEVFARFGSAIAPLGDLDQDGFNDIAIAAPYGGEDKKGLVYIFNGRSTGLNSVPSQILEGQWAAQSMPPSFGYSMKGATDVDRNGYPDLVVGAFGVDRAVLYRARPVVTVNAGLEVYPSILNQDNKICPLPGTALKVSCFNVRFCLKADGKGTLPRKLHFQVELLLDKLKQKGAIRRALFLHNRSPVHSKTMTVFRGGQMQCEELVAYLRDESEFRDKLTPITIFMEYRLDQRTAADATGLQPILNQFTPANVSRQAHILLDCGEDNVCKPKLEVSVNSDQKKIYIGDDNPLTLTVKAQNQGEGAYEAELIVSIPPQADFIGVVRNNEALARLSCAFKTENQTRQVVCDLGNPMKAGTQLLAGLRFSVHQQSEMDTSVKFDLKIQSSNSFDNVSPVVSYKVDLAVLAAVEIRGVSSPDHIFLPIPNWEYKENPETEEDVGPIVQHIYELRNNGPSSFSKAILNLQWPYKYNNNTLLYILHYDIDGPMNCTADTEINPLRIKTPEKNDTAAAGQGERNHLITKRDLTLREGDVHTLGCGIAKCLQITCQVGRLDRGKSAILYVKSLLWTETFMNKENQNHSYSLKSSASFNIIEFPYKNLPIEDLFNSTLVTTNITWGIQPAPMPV
T3 sequence (O54890 26-717, chain 2 of 2, further chain): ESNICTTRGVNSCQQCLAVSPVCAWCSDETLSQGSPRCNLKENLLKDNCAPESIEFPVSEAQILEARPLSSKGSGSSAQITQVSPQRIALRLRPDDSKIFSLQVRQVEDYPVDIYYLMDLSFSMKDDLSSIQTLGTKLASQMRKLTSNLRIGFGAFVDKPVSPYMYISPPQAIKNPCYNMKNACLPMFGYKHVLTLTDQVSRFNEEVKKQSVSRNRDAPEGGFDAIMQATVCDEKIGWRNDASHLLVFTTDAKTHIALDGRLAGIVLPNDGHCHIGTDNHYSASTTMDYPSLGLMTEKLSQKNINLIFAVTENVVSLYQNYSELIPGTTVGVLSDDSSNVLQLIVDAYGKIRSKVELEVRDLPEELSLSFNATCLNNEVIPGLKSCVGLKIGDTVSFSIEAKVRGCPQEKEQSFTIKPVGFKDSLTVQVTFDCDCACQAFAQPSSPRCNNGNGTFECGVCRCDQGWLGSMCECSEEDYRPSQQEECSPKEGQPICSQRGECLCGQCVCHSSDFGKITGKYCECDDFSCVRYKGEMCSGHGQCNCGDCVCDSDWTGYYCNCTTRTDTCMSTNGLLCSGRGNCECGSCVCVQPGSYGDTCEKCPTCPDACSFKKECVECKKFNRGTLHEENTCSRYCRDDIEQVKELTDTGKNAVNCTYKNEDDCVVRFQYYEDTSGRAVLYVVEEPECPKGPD

For orientation: Kd means the free concentration of one partner at which half of the binding sites on the other are occupied at equilibrium, for simple one-to-one binding. For B1, the Kd in assay [1] turned out to be 200 nM.

B2: recombinant human CIRP (rhCIRP) (ligand, UniProt Q14011 1-172, looked up)
chain: MASDEGKLFVGGLSFDTNEQSLEQVFSKYGQISEVVVVKDRETQRSRGFGFVTFENIDDAKDAMMAMNGKSVDGRQIRVDQAGKSSDNRSRGYRGGSAGGRGFFRGGRGRGRGFSRGGGDRGYGGNRFESRSGGYGGSRDYYSSRSQSGGYSDRSSGGSYRDSYDSYATHNE
notes: The source of rhCIRP is not described in the methods
B2: in assay [2], the Kd was 29 nM.

B3: MFG-E8-derived oligopeptide 3 (MOP3) (peptide)
peptide: RGDSSSYKTWNLRAFGWY
notes: Synthetic 18-residue chimeric peptide: RGD followed by 15 residues of the mouse MFG-E8 discoidin domain 2
With B3, the Kd came out at 776 nM in assay [3], 310 nM in assay [4] and 13 nM in assay [5].
